Measurements from PMC3936710.
Several values for one entry are separate records, joined by “and”; a condition that tells them apart may be missing. Equal values may be shown once.

Legend:
[1] = biological target: T1, TRF1 (UniProt P54274); assay: single-molecule DNA tightrope; conditions: Tightrope assays at 75-225 mM ionic strength (buffer, pH and temperature not in the material); AFM samples diluted 10-fold in 25 mM NaOAc, 25 mM HEPES-KOH pH 7.
T1 sequence: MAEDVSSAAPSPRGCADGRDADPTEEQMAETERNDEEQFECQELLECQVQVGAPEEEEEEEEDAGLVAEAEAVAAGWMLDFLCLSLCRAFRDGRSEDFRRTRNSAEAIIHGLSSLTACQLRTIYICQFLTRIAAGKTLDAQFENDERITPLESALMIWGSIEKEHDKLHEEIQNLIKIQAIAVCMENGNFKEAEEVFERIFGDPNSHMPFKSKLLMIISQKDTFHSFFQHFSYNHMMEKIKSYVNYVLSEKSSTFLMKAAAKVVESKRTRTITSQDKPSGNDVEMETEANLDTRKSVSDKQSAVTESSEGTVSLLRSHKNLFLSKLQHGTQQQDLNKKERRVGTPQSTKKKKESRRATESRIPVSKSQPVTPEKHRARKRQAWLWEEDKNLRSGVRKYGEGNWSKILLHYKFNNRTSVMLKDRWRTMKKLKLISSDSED

[2] = biological target: T2, TRF2 (UniProt Q15554); assay: single-molecule DNA tightrope; conditions: Tightrope assays at 75-225 mM ionic strength (buffer, pH and temperature not in the material); AFM samples diluted 10-fold in 25 mM NaOAc, 25 mM HEPES-KOH pH 7.
T2 sequence: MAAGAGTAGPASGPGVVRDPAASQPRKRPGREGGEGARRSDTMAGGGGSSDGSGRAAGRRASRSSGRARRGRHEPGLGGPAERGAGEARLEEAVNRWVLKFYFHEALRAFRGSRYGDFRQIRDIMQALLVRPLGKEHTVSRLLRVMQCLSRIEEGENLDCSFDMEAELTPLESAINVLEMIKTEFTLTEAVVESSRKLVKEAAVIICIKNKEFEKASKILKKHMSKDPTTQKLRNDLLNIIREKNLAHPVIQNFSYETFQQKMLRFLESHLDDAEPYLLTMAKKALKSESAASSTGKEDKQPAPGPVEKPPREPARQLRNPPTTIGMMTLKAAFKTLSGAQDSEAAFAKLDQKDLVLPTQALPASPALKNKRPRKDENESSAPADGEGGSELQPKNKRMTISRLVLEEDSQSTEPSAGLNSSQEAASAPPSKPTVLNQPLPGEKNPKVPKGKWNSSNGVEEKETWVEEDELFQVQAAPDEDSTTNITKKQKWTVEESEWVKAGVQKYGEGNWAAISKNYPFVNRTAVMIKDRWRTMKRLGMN

[3] = biological target: T3, TRF2ΔB (UniProt Q15554); assay: AFM; conditions: linear T270; Tightrope assays at 75-225 mM ionic strength (buffer, pH and temperature not in the material); AFM samples diluted 10-fold in 25 mM NaOAc, 25 mM HEPES-KOH pH 7.
T3 sequence: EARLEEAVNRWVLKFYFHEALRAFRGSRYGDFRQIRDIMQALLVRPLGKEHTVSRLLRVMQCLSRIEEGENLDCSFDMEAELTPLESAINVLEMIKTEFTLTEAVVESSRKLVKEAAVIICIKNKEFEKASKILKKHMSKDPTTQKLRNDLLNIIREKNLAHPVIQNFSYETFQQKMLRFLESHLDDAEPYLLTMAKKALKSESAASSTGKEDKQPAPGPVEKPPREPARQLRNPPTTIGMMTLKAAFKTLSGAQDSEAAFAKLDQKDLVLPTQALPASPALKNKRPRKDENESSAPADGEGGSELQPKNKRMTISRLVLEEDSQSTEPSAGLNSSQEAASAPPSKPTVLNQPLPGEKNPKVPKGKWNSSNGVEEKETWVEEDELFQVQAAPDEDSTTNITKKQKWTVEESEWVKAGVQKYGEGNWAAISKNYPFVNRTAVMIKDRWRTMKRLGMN

[4] = biological target: T3, TRF2ΔB; assay: single-molecule DNA tightrope; conditions: 125 mM ionic strength; Tightrope assays at 75-225 mM ionic strength (buffer, pH and temperature not in the material); AFM samples diluted 10-fold in 25 mM NaOAc, 25 mM HEPES-KOH pH 7.
[5] = system: TRF2 Myb domain; assay: cited; conditions: Tightrope assays at 75-225 mM ionic strength (buffer, pH and temperature not in the material); AFM samples diluted 10-fold in 25 mM NaOAc, 25 mM HEPES-KOH pH 7.; cited from earlier work
[6] = system: TRF1 Myb domain; assay: cited; conditions: Tightrope assays at 75-225 mM ionic strength (buffer, pH and temperature not in the material); AFM samples diluted 10-fold in 25 mM NaOAc, 25 mM HEPES-KOH pH 7.; cited from earlier work

For T270 telomeric region (TTAGGG)270, the binding signal (s (attached lifetime)) [1] was 17.3 and 9.2, the binding signal (s (attached lifetime)) [2] was 14.8 and 10.3 and the binding signal (% of DNA-bound QDs at telomeric region) [3] was 66.

lambda DNA gave a binding signal (QDs per field of view (TRF2 13.3)) [4] of 1.4.

In the case of telomeric DNA of cited Myb domain study, the Kd [5] is listed as 750 nM and the Kd [6] is listed as 200 nM.

With “TTAGGGTTAGGGTTAGGGTTAGGGTTAGGGTTAGGGTTAGGGTTAGGGTTAGGGTTAGGG (double strand) [Tel10 telomeric region (TTAGGG)10]” the binding signal (s (attached lifetime)) [2] was 6.7.
